{
  "source": "FireProtDB (doi:10.1016/j.bbapap.2007.04.008)",
  "conditions": "Brassica napus, pH 7, 27 °C, GdnHCl, phosphate 0.02 M, transition: 3, reversible: Yes, whole UniProt chain shown",
  "note": "Several values for one entry are separate records, joined by “and”; a condition that tells them apart may be missing. Equal entries are not always repeated.",
  "data": [
    {"protein": "Napin-1A wild type, P24565 (protein) QPQKCQREFQQEQHLRACQQWIRQQLAGSPFQSGPQEGPWLREQCCNELYQEDQVCVCPTLKQAAKSVRVQGQHGPFQSTRIYQIAKNLPNVCNMKQIGTCPFIAIPFFP", "values": [
      {"measurement": "denaturant m value", "setting": "CD", "result": "1.8 kcal/mol/M and 1.2 kcal/mol/M"},
      {"measurement": "unfolding free energy", "setting": "CD", "result": "5.2 kcal/mol and 5.1 kcal/mol"},
      {"measurement": "denaturant m value", "setting": "Fluorescence", "result": "1.6 kcal/mol/M and 1.3 kcal/mol/M"},
      {"measurement": "unfolding free energy", "setting": "Fluorescence", "result": "5.2 kcal/mol and 5.1 kcal/mol"}
    ]}
  ]
}
